Literature values, collected in PMC8634938.

Legend:
IL-22R (Homo sapiens) = IL-22R (Homo sapiens) (UniProt Q8N6P7)
IL-22BP (Homo sapiens) = IL-22BP (Homo sapiens) (UniProt Q969J5)
Sequence of UniProt Q969J5 (Q969J5 22-263): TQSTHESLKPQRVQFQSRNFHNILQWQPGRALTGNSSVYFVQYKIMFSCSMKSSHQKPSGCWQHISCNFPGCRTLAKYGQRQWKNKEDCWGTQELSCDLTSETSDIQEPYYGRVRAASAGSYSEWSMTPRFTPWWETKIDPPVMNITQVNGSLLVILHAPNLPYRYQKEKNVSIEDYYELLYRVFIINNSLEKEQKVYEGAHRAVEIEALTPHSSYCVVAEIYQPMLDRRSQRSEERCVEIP

Sequence of UniProt Q8N6P7 (Q8N6P7 16-228): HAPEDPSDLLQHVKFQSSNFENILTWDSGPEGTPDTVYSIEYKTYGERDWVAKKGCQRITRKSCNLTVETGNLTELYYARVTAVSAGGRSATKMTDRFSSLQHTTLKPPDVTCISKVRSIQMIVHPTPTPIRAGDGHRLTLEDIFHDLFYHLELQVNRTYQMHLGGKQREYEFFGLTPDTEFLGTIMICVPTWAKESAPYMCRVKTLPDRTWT

- Kd (IL-22R (Homo sapiens)): 20 nM
- Kd (IL-22BP (Homo sapiens)): 0.001 nM
Substance: IL-22 (from UniProt Q9GZX6)
